Measurements reported in article PMC7066533 (Frontiers in Pharmacology, 2020).
Square brackets hold non-standard residues; d marks the D form. βAla = NCCC(=O)O

Key:
[1] = target: T1, human delta opioid receptor (human, UniProt P41143 1-372); assay: radioligand binding; displacement of 2.5 nM [3H]DAMGO (MOPr), 2 nM [3H]diprenorphine (DOPr) or 1 nM [3H]U69,593 (KOPr) from membranes of receptor-expressing HEK-293 cells; 25°C, 90 min, 100 mM Tris-HCl, 0.3% BSA; competitor 10^-12 to 10^-4 M; Ki from IC50 by Cheng-Prusoff; settings: one partner purified
T1 construct: human delta opioid receptor, stably expressed in HEK-293 cells; membrane preparations used; also called hDOPr; DOPr; source: HEK-293 cells stably expressing hDOPr, cell membranes

[2] = target: T2, human kappa opioid receptor (human, UniProt P41145 1-380); assay: as above; settings: one partner purified
T2 construct: human kappa opioid receptor, stably expressed in HEK-293 cells; Functional rows in U87-MG cells and normal human astrocytes (endogenous human KOPr) are also written on this molecule; also called hKOPr; KOPr

human mu opioid receptor = target: T3, human mu opioid receptor (human, UniProt P35372 1-400); assay: as above; settings: one partner purified
T3 construct: human mu opioid receptor, stably expressed in HEK-293 cells; membrane preparations used; also called hMOPr; MOPr; source: HEK-293 cells stably expressing hMOPr, cell membranes

[3] = target: T2, human kappa opioid receptor; assay: cell-based or functional assay

cyclo(FG[βAla][dW]) (SMILES O=C1CNC(=O)[C@H](Cc2ccccc2)NC(=O)[C@@H](Cc2c[nH]c3ccccc23)NC(=O)CCN1) [LOR17 (c[Phe-Gly-(β-Ala)-D-Trp])]
Ki [1]: > 100 µM
Ki [2]: 1.19 nM
Ki (human mu opioid receptor): > 100 µM
IC50 of inhibition of forskolin-induced cAMP accumulation, HEK-293/KOR cells [3]: 2.8 nM
IC50 of inhibition of forskolin-induced cAMP accumulation, U87-MG cells (endogenous KOPr) [3]: 3.1 nM
IC50 of inhibition of forskolin-induced cAMP accumulation, normal human astrocytes (endogenous KOPr) [3]: 3 nM
